The record followed here is the DeepSol protein solubility set.

The series in a line: soluble on expression in E. coli; label from the status in PepcDB or PDB records.
“MRLGICSHTLCPPIEGNIKQHLHNPMKEEEFNELKQNLDSYTPLLPESVTDYFMEKAGVVTSDQSVKKLVSLLAHKFVTDIAVSSFQYHRINQKAAQKDKRFAKEKKPTFQLVDLEKALEEVGISISRPHYYM”: the “soluble on expression in E. coli” value is recorded as “not soluble”.

In the case of “MSLRAGVTGGPQIITKVITMIKFVLDTSIFVNPDVRKKFGETPTEAMKTFLHYAENLFGKVEFYMPPGIYRELMHFVEEEEVSPDIELYIIKKPPNVHDIKIPAFVVYELIEDIRRRVDKGLRVAEKAVRESVIDTSNVDKIIQKLRRNYRKALREGILDSKEDFELILLAKEIDGIIVSADVGILTWAEKMGIKWVDAFKFKEVLSELVEKFKRSESEKERKEGHHHHHH”, the “soluble on expression in E. coli” value is “not soluble”.

For “MKKIIFTFLILGNVYNFAAQKTLRTVEKCRVTSKGTTKDGKRFANCISLQSGKTFNFTGLVDQTYYKFSKGTIFKVYFYGNGNRNLTLETFDYIR”, the “soluble on expression in E. coli” value is given as “not soluble”.

Regarding “MVKSVLCFGDSLTWGSNAETGGRHSHDDLWPSVLQKALGSDVHVIHEGLGGRTTAYDDHTGDCDRNGARLLPTLLHSHAPLDMVIIMLGTNDMKPAIHGSAIVAMKGVERLVKLTRNHVWQVSDWEAPDVLIVAPPQLCETANPFMGAIFRDAIDESAMLASVYRDLADELDCGFFDAGSVARTTPVDGVHLDAENTRAIGRGLEPVVRMMLGL”, the “soluble on expression in E. coli” value is listed as “soluble”.

Take “MAHHHHHHMSVVISTSLGSLLINLRFVDCPKASFNFLALCASSYYDGCRFHRLVPETFVLTGDPTGTGKGGESVFVHHQDIKQRYFEDEGMGNALHDRRGVVSMAHKGNKPDTNASQFFILFKPCPSLDSKHTAFGVVDFGWNDGESERTLKRVEELEADGSYNVLDVEARILSTTVLYNPFAEGHIKLNV”: the “soluble on expression in E. coli” value is on record as “not soluble”.

In the case of “MARESVKILQGKLDVESLISQLNAALSEEWLAYYQYWVGALVVEGAMRADVQGEFEEHAEEERRHAQLLADRIIELEGVPVLDPKKWFELARCKYDAPQGFDSVSLLKDNVASERCAILRYQEIADFTNGKDFTTCDIAKHILAEEEEHEQDLQDYLTDIARMKKSFLDK”, the “soluble on expression in E. coli” value is “not soluble”.

On to “PIFEEQPINTIYPEESLEGKVSLNCRARASPFPVYKWRMNNGDVDLTSDRYSMVGGNLVINNPDKQKDAGIYYCLASNNYGMVRSTEATLSFGYLDPFPPEERPEVRVKEGKGMVLLCDPPYHFPDDLSYRWLLNEFPVFITMDKRRFVSQTNGNLYIANVEASDKGNYSCFVSSPSITKSVFSKFIPLIPIPERTTKPYPADIVVQFKDVYALMGQNVTLECFALGNPVPDIRWRKVLEPMPSTAEISTSGAVLKIFNIQLEDEGIYECEAENIRGKDKHQARIYVQAFPEWVEHINDTEVDIGSDLYWPCVATGKPIPTIRWLKNGYAYHKGELRLYDVTFENAGMYQCIAENTYGAIYANAELKILALAPTFEMNPMKKKILAAKGGRVIIECKPKAAPKPKFSWSKGTEWLVNSSRILIWEDGSLEINNITRNDGGIYTCFAENNRGKANSTGTLVITDPTRIILAPINADITVGENATMQCAASFDPALDLTFVWSFNGYVIDFNKENIHYQRNFMLDSNGELLIRNAQLKHAGRYTCTAQTIVDNSSASADLVVRGPPGPPGGLRIEDIRATSVALTWSRGSDNHSPISKYTIQTKTILSDDWKDAKTDPPIIEGNMEAARAVDLIPWMEYEFRVVATNTLGRGEPSIPSNRIKTDGAAPNVAPSDVGGGGGRNRELTITWAPLSREYHYGNNFGYIVAFKPFDGEEWKKVTVTNPDTGRYVHKDETMSPSTAFQVKVKAFNNKGDGPYSLVAVINSAQDAPSEAPTEVGVKVLSSSEISVHWEHVLEKIVESYQIRYWAAHDKEEAANRVQVTSQEYSARLENLLPDTQYFIEVGACNSAGCGPPSDMIEAFTKKAPPSQPPRIISSVRSGSRYIITWDHVVALSNESTVTGYKVLYRPDGQHDGKLYSTHKHSIEVPIPRDGEYVVEVRAHSDGGDGVVSQVKISGAPTLSPSLLGLLLPAFGILVYLEF”, for which the “soluble on expression in E. coli” value is “soluble”.

Take “MGSDKIHHHHHHMDYTPRLQPARLIKRYKRFLADVVTPEGETLTLHCANTGAMTGCATPGDTVWYSTSDNPKRKYPQSWELTETQQNHWICVNTLRANTLLYEALLENRIEELAGYSDIKTEVKYGTENSRIDLLLQAPDRIDCYIEVKSVTLLQHECGYFPDAVTLRGQKHLRELQQMVSNGKRAVLFFAVLHSGIQQVSPARHIDSRYAELFIEAQQAGVEILCYGSTLCPDGIKLTNKLPLLG”: the “soluble on expression in E. coli” value is recorded as “not soluble”.

With “MLNKEIKGALIVSCQALADEPLHSSFIMSKMALAAKQGGAKGIRANSVVDIRAIRKEVDLPIIGIIKRDYPDAEVYITATMREVDELMAVQPEIIALDATHSKRPNGETLATFFKRIKEKYPNQEWMADCSTLEEMIEAAELGFDYIGTTLVGYTPQSENQRIEQNDFELLREAKKHFTTPIIAEGMIDTPAKVQRVLELGTYSVVVGSVITRPQKITEKFVEATKIKQNQA”, the “soluble on expression in E. coli” value was “not soluble”.

Turning to “MGSDKIHHHHHHADSVKIGFITDMSGLYADIDGQGGLEAIKMAVADFGGKVNGKPIEVVYADHQNKADIAASKAREWMDRGGLDLLVGGTNSATALSMNQVAAEKKKVYINIGAGADTLTNEQCTPYTVHYAYDTMALAKGTGSAVVKQGGKTWFFLTADYAFGKALEKNTADVVKANGGKVLGEVRHPLSASDFSSFLLQAQSSKAQILGLANAGGDTVNAIKAAKEFGITKTMKLAALLMFINDVHALGLETTQGLVLTDSWYWNRDQASRQWAQRYFAKMKKMPSSLQAADYSSVTTYLKAVQAAGSTDSDKVMAQLKKMKIDDFYAKGYIRTDGSMIHDMYLMEVKKPSESKEPWDYYKVVATIPGEQAFTTKQETRCALWK”, the “soluble on expression in E. coli” value is “not soluble”.

“MKIGYLGPRGTFTEMAVQTLFDDKNVLKPYRTIPDCMDSVANGDMDAAVVPVENAIEGSVNVTLDYLIHKQRLEIVADIVVPISQHFLVHPNQRDNEIKKILSHPHAVAQCHEFLRSSYPGVEIEYMTSTAAAAQWVADHPNEPVAAIANEQAATSYQLDMLEKDIHDYDENRTRFAVLAKGKLSLPPYQVEPYTKKTTMMVTLSSDFSGALHQVLSAFAWRKLNLTKIESRPMKTGLGNYFFIIDVDCEADDVLIPGVMQELEALGCGVELLGSYPCFFHTSLKLTEASSV”: the “soluble on expression in E. coli” value was “not soluble”.

With “MAELACFVSFSLTEDKVVWYPINKKAVQTMLCAKVEKDQRSNYYDTILYGVAPPPEFRNRFKTNERYGLDYESDQYTELVNLLADTLNMVSMPTEKFQFDIVKTVVQVRHLENLLCRIKDVNDILNANVKLRVKAVMIACNLVNETETTPLTESNDIVYQDSYFTITKLDYSNHKLLPLMADEYKITINTKTDIPDRNQTAFAAYIRYNFNKFAAISHGKRHWRLVLHSQLMSHAERLDRKIKSDKKHGRQFSYDDGDMAFVHPGWKTCIGQLCGGTTFEVAKTSLYSIKPSKTVRTATNKIESDLISMVGN”, the “soluble on expression in E. coli” value is given as “soluble”.

For “MDAHQIISFIQNSKKATPVKVYLKGDLEKIDFPSDVKTFITGNAGTIFGEWAVVEPLLEANKANIEDYVIENDRRNSAIPLLDMKNI”, the “soluble on expression in E. coli” value is listed as “not soluble”.

“MGIKKKYGEGKMDIKPIRKKRVYQAIIEQIQQFIRQGQLKPGDKLPSERDLAEKFQVSRTTIKEAIAVMEAIGVLEIRPGVGTFVRETGNHFLDLNYIFGDDDTEIQELMEFRQAIEVEAAYYAAIRGTEDGKRKLTQLFSELEKEVMSGKLPAKSDFSFHMQISSMSQNALFLRIMEFISDKLFKSVTKNAVNTFAGAGDPVRVLQEHRAIYEAILSGDGVKARQAMRYHLESVIARYKGI”: the “soluble on expression in E. coli” value is on record as “soluble”.

In the case of “MAHHHHHHMGKHMNNQDFAETEQAARAIRKLLNGEIDTIKLENGNKLKIRSSDEKDDAHKRHNDKTNYSFIDNSEEENVQTNLLRKNETVDAGSKIVEDQEDFYILDNESIEAIANKISMENKFHEFEAEAFAQSLKDIIRSLNN”, the “soluble on expression in E. coli” value is recorded as “soluble”.

Regarding “MELLCCEGTRHAPRAGPDPRLLGDQRVLQSLLRLEERYVPRASYFQCVQREIKPHMRKMLAYWMLEVCEEQRCEEEVFPLAMNYLDRYLSCVPTRKAQLQLLGAVCMLLASKLRETTPLTIEKLCIYTDHAVSPRQLRDWEVLVLGKLKWDLAAVIAHDFLAFILHRLSLPRDRQALVKKHAQTFLALCATDYTFAMYPPSMIATGSIGAAVQGLGACSMSGDELTELLAGITGTEVDCLRACQEQIEAALRESLREASQTSSSPAPKAPRGSSSQGPSQTSTPTDVTAIHLLEHHHHHH”, the “soluble on expression in E. coli” value was “not soluble”.

“RMTVWQLDLQKRLVQVDGDVARLIGLSHVPPELPVAVFENYVDPEDLPLLRAAEAAALRGEPMQVELRLVLESGGRRWLRLMGEPRPDA”: the “soluble on expression in E. coli” value was “not soluble”.

For the sequence “MGSDKIHHHHHHMQLDKYTAKKIVKRAMKIIHHSVNVMDHDGVIIASGNSTRLNQRHTGAVLALRENRVVEIDQALAQKWNFEAQPGINLPIHYLGKNIGVVGISGEPTQVKQYAELVKMTAELIVEQQALLEQESWHRRYKEEFILQLLHCNLNWKEMEQQAKFFSFDLNKSRVVVLIKLLNPALDNLQNLINYLEQSEFAQDVAILSLDQVVVLKTWQNSTVLSAQMKTLLPADYSKQDYKIAVGACLNLPLFEQLPLSFQSAQSTLSYGLKHHPRKGIYVFDEHRLPVLLAGLSHSWQGNELIKPLSPLFSEENAILYKTLQQYFLSNCDLYLTAEKLFVHPNTLRYRLNKIEQITGLFFNKIDDKLTLYLGTLLEH”, the “soluble on expression in E. coli” value is “not soluble”.

Turning to “GSEVAIKMVVVGNGAVGKSSMIQRYCKGIFTKDYKKTIGVDFLERQIQVNDEDVRLMLWDTAGQEEFDAITKAYYRGAQACVLVFSTTDRESFEAISSWREKVVAEVGDIPTALVQNKIDLLDDSCIKNEEAEGLAKRLKLRFYRTSVKEDLNVSEVFKYLAEKHLQK”, the “soluble on expression in E. coli” value is on record as “soluble”.

Turning to “MNNQTMTFTPEQLRKHAQEMLRHAEQLEKTGITKDAIRKDMVPALRELMQAKHRAQKAVDELVDCVAELETRVGKFEKLVQEALR”, the “soluble on expression in E. coli” value is recorded as “not soluble”.

Take “MFITFEGIDGSGKSTQIQLLAQYLEKRGKKVILKREPGGTETGEKIRKILLEEEVTPKAELFLFLASRNLLVTEIKQYLSEGYAVLLDRYTDSSVAYQGFGRNLGKEIVEELNDFATDGLIPDLTFYIDVDVETALKRKGELNRFEKREFLERVREGYLVLAREHPERIVVLDGKRSIEEIHRDVVREVKRRWKLDV”: the “soluble on expression in E. coli” value was “soluble”.

As for “MSLAAGADAGPGPEPCATLVQGKFFGYFSAAAVFPANASRCSWTLRNPDPRRYTLYMKVAKAPVPCSGPGRVRTYQFDSFLESTRTYLGVESFDEVLRLCDPSAPLAFLQASKQFLQMRRQQPPQHDGLRPRAGPPGPTDDFSVEYLVVGNRNEGHHHHHH”, the “soluble on expression in E. coli” value was “not soluble”.

Turning to “MASAIGKNFQSGARECSTFEKIKTELSAAGLSSGAIDGILKIAATYKPKEGEKPDLAQAMVTIGKLFAELETFIKTQPESDQTIYHAIIEKKKAELVAHGIKF”, the “soluble on expression in E. coli” value is on record as “not soluble”.

In the case of “MGSDKIHHHHHHMKLWAIYFEPEDWVGFRETRRFSFSDRVESVFPSSFPFYGAVRTALLMKNQKFDPGDVERAGDVRMFGPFVFENTPEGRKHYFPLPRNIYKTDSGYRVTPIVEIDGVYLPWKPEYKMDSKESTSGGLIELSDLELLRSNTQGVCKFDLVSAEKIFKKETHIGVAFEENRKKVKERMIYSISYYRFYDGGFFMFTDDERTVELVSKLDGVFLGMKSKWSAVEVEELNTTAFDPPDYKNVAVALITPAVFDGGGMPKDKTILGKRVLTTAGIRKQVVSGWDLRENKPKKIYHAVSPGAVYYLEGKVNGHVLNESKFTDFGFGRCIFMKYEKL”, the “soluble on expression in E. coli” value is given as “not soluble”.
